Test results: US20260167721A1 (ABLEXIS, published 2026)

B1: CD3 × CD33-BspAb115 (bispecific antibody)
chain 1: NFMLTQPHSVSESPGKTVTISCTRTSGSIASNYVQWYQQRPGSSPTTVIYEDNQRPSGVPDRFSGSIDSSSNSASLTISGLKTEDEAAYYCQSYDRSNRVFGCGTKLTVLGGGGSGGGGSGGGGSGGGGSQVQLQESGPGLVKPSETLSLTCTVSGGSISSYYWSWIRQPAGKCLEWIGRIYTSGSTKYNPSLKSRVTMSVDTSKNQFSLKLISVTAADTAVYFCARERIRDLYFDYWGQGTLVTVSSDKTHTCPPCPAPEFEGGPSVFLFPPKPKDTLMISRTPEVTCVVVDVSHEDPEVKFNWYVDGVEVHNAKTKPREEQYNSTYRVVSVLTVLHQDWLNGKEYKCKVSNKALPASIEKTISKAKGQPREPQVYTLPPCREEMTKNQVSLWCLVKGFYPSDIAVEWESNGQPENNYKTTPPVLDSDGSFFLYSKLTVDKSRWQQGNVFSCSVMHEALHNHYTQKSLSLSPGK
chain 2: EVQLVQSGAEVKKPGSSVKVSCKASGYTITDSNIHWVRQAPGQSLEWIGYIYPYNGGTDYNQKFKNRATLTVDNPTNTAYMELSSLRSEDTAFYYCVNGNPWLAYWGQGTLVTVSSASTKGPSVFPLAPSSKSTSGGTAALGCLVKDYFPEPVTVSWNSGALTSGVHTFPAVLQSSGLYSLSSVVTVPSSSLGTQTYICNVNHKPSNTKVDKRVEPKSCDKTHTCPPCPAPEFEGGPSVFLFPPKPKDTLMISRTPEVTCVVVDVSHEDPEVKFNWYVDGVEVHNAKTKPREEQYNSTYRVVSVLTVLHQDWLNGKEYKCKVSNKALPASIEKTISKAKGQPREPQVCTLPPSREEMTKNQVSLSCAVKGFYPSDIAVEWESNGQPENNYKTTPPVLDSDGSFFLVSKLTVDKSRWQQGNVFSCSVMHEALHNRFTQKSLSLSPGK
chain 3: DIQLTQSPSTLSASVGDRVTITCRASESLDNYGIRFLTWFQQKPGKAPKLLMYAASNQGSGVPSRFSGSGSGTEFTLTISSLQPDDFATYYCQQTKEVPWSFGQGTKVEVKRTVAAPSVFIFPPSDEQLKSGTASVVCLLNNFYPREAKVQWKVDNALQSGNSQESVTEQDSKDSTYSLSSTLTLSKADYEKHKVYACEVTHQGLSSPVTKSFNRGEC
B2: CD3 × CD33-BspAb125 (bispecific antibody)
chain 1: not shown
chain 2: B1 chain 2
chain 3: B1 chain 3
B3: CD3 × CD33-BspAb71 (bispecific antibody)
chain 1: EVQLVESGGGLVKPGGSLRLSCAASGFTFSSYSMNWVRQAPGKCLEWVSSISRSSSYIYYADSVKGRFTLSRDNAKNSLYLQMNSLRGEDTAIYYCGRDGKGAIFLDYWGQGTLVTVSSGGGGSGGGGSGGGGSGGGGSSYELTQPPSVSVSPGQTARITCSGDALPKKYAYWYQQKSGQAPVLVIYEDSKRPSGIPERFSGSSSGTMATLTISGAQVEDEADYYCYSTHSSGNHRVFGCGTKLTVLDKTHTCPPCPAPEFEGGPSVFLFPPKPKDTLMISRTPEVTCVVVDVSHEDPEVKFNWYVDGVEVHNAKTKPREEQYNSTYRVVSVLTVLHQDWLNGKEYKCKVSNKALPASIEKTISKAKGQPREPQVYTLPPCREEMTKNQVSLWCLVKGFYPSDIAVEWESNGQPENNYKTTPPVLDSDGSFFLYSKLTVDKSRWQQGNVFSCSVMHEALHNHYTQKSLSLSPGK
chain 2: B1 chain 2
chain 3: B1 chain 3
B4: High affinity Control (Control Humanized anti-CD3 (high affinity) scFv-Fc knob/TM with gemtuzumab arm) (bispecific antibody)
scFv: EVQLVESGGGLVQPGGSLRLSCAASGFTFSTYAMNWVRQAPGKGLEWVGRIRSKYNNYATYYADSVKGRFTISRDDSKNTLYLQMNSLRAEDTAVYYCVRHGNFGDSYVSWFAYWGQGTLVTVSSGKPGSGKPGSGKPGSGKPGSQAVVTQEPSLTVSPGGTVTLTCGSSTGAVTTSNYANWVQQKPGKSPRGLIGGTNKRAPGVPARFSGSLLGGKAALTISGAQPEDEADYYCALWYSNHWVFGGGTKLTVLGGGGSDKTHTCPPCPAPEFEGGPSVFLFPPKPKDTLMISRTPEVTCVVVDVSHEDPEVKFNWYVDGVEVHNAKTKPREEQYNSTYRVVSVLTVLHQDWLNGKEYKCKVSNKALPASIEKTISKAKGQPREPQVYTLPPCREEMTKNQVSLWCLVKGFYPSDIAVEWESNGQPENNYKTTPPVLDSDGSFFLYSKLTVDKSRWQQGNVFSCSVMHEALHNHYTQKSLSLSPGK
heavy: B1 chain 2
light: B1 chain 3

What follows are binders tested against T1, human CD3 (on human Pan-T cells or donor PBMC) (human, UniProt P07766 23-207; P04234 22-171; P09693 23-182; P20963 22-164) (assay: cell-based or functional assay).
T1 sequence (P07766 23-207, chain 1 of 4): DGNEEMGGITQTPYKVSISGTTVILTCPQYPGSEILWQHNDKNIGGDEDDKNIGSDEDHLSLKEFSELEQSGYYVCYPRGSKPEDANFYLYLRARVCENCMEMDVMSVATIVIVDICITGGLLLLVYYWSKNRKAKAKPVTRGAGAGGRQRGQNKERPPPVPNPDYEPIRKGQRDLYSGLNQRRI
T1 sequence (P04234 22-171, chain 2 of 4): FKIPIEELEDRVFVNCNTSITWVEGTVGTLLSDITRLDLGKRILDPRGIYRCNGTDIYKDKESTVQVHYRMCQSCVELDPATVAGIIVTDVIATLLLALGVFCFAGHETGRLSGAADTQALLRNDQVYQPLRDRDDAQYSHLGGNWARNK
T1 sequence (P09693 23-182, chain 3 of 4): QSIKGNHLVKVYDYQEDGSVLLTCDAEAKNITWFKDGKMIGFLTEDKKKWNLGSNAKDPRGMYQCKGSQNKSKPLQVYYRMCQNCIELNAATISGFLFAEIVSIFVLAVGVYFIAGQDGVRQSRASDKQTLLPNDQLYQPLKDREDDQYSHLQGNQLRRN
T1 sequence (P20963 22-164, chain 4 of 4): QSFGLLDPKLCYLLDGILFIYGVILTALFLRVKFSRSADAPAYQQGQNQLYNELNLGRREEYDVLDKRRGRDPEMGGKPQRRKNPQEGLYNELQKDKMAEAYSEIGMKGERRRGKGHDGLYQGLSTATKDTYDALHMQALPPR

RTCC Assay, Donor 0, EC50 [nM] | RTCC Assay, Donor 0, gMFI max [gMFI] | RTCC Assay, Donor 1, EC50 [nM] | RTCC Assay, Donor 1, gMFI max [gMFI] | RTCC Assay, Donor 2, EC50 [nM] | RTCC Assay, Donor 2, gMFI max [gMFI] | RTCC Assay, Donor 3, EC50 [nM] | RTCC Assay, Donor 3, gMFI max [gMFI] | Binder
0.054 | 38700 | 0.006 | 63000 | 0.009 | 51900 | 0.011 | 82700 | B1
0.166 | 26700 | 0.027 | 65500 | 0.049 | 54600 | 0.055 | 84200 | B2
0.479 | 23900 | 0.027 | 63000 | 0.083 | 57500 | 0.377 | 78600 | B3
0.908 | 75100 | 0.04 | 81700 | 0.039 | 82900 | 0.031 | 87200 | B4

Target: T1, human CD3 (on human Pan-T cells or …)
Experiment: cell-based or functional assay
Remark: another data set of the same source

Cytokine Release Assay (IFNγ), Donor 0, EC50 [nM] | Cytokine Release Assay (IFNγ), Donor 0, gMFI max [gMFI] | Cytokine Release Assay (IFNγ), Donor 1, EC50 [nM] | Cytokine Release Assay (IFNγ), Donor 1, gMFI max [gMFI] | Cytokine Release Assay (IFNγ), Donor 2, EC50 [nM] | Cytokine Release Assay (IFNγ), Donor 2, gMFI max [gMFI] | Cytokine Release Assay (IFNγ), Donor 3, EC50 [nM] | Cytokine Release Assay (IFNγ), Donor 3, gMFI max [gMFI] | Binder
0.0418 | 1.6e+06 | 0.191 | 45100 | 0.0396 | 66800 | 0.0403 | 475000 | B1
~12.3 | 958000 |  | 4940 | 0.103 | 16200 | 0.063 | 170000 | B2
 | 812000 |  | 5380 | 1.91 | 27700 |  | 332000 | B3
0.045 | 2.82e+06 | 6.99 | 912000 | 2.16 | 1.41e+06 | 0.126 | 1.68e+06 | B4
